Results on 13 molecules are retold here after article PMC10786891, “Massively parallel profiling of RNA-targeting CRISPR-Cas13d”.

Sequences and labels used below:
B1: target 1 U8A,C22U (mixed)
RNA 1: CACCCGUGCAAAAAUGCAGGGGUCUAAAACUGAGCGGAUAACCUCUCUAUGG
RNA 2: GGGAAUGGAUCCACAUCUACGAAUUCGUAUCAUAGAGAGGUUAACCGCUCACCGAGAUCGGAAGAGCACACGU
B2: target 1 G5U,G12C (mixed)
RNA 1: CACCCGUGCAAAAAUGCAGGGGUCUAAAACUGAGCGGAUAACCUCUCUAUGG
RNA 2: GGGAAUGGAUCCACAUCUACGAAUUCGUACCAUAGAGAGCUUAUCCUCUCACCGAGAUCGGAAGAGCACACGU
B3: target 1 A9U,G12A (mixed)
RNA 1: CACCCGUGCAAAAAUGCAGGGGUCUAAAACUGAGCGGAUAACCUCUCUAUGG
RNA 2: GGGAAUGGAUCCACAUCUACGAAUUCGUACCAUAGAGAGAUUUUCCGCUCACCGAGAUCGGAAGAGCACACGU
B4: target 1 insC 3' of 22,insC 3' of 10 (mixed)
RNA 1: CACCCGUGCAAAAAUGCAGGGGUCUAAAACUGAGCGGAUAACCUCUCUAUGG
RNA 2: GGGAAUGGAUCCACAUCUACGAAUUCGUACCCAUAGAGAGGUUCAUCCGCUCACCGAGAUCGGAAGAGCACACGU
B5: target 1 insG 3' of 16,insA 3' of 10 (mixed)
RNA 1: CACCCGUGCAAAAAUGCAGGGGUCUAAAACUGAGCGGAUAACCUCUCUAUGG
RNA 2: GGGAAUGGAUCCACAUCUACGAAUUCGUACCAUAGAGGAGGUUAAUCCGCUCACCGAGAUCGGAAGAGCACACGU
B6: target 1 G15C,C22A (mixed)
RNA 1: CACCCGUGCAAAAAUGCAGGGGUCUAAAACUGAGCGGAUAACCUCUCUAUGG
RNA 2: GGGAAUGGAUCCACAUCUACGAAUUCGUAACAUAGACAGGUUAUCCGCUCACCGAGAUCGGAAGAGCACACGU
B7: target 1 insU 3' of 6,insG 3' of 3 (mixed)
RNA 1: CACCCGUGCAAAAAUGCAGGGGUCUAAAACUGAGCGGAUAACCUCUCUAUGG
RNA 2: GGGAAUGGAUCCACAUCUACGAAUUCGUACCAUAGAGAGGUUAUCCUGCUGCACCGAGAUCGGAAGAGCACACGU
B8: target 1 insC 3' of 12,insA 3' of 11 (mixed)
RNA 1: CACCCGUGCAAAAAUGCAGGGGUCUAAAACUGAGCGGAUAACCUCUCUAUGG
RNA 2: GGGAAUGGAUCCACAUCUACGAAUUCGUACCAUAGAGAGGCUAUAUCCGCUCACCGAGAUCGGAAGAGCACACGU
B9: target 1 insG 3' of 11,insG 3' of 7 (mixed)
RNA 1: CACCCGUGCAAAAAUGCAGGGGUCUAAAACUGAGCGGAUAACCUCUCUAUGG
RNA 2: GGGAAUGGAUCCACAUCUACGAAUUCGUACCAUAGAGAGGUGUAUCGCGCUCACCGAGAUCGGAAGAGCACACGU
B10: target 1 insC 3' of 12,insG 3' of 2 (mixed)
RNA 1: CACCCGUGCAAAAAUGCAGGGGUCUAAAACUGAGCGGAUAACCUCUCUAUGG
RNA 2: GGGAAUGGAUCCACAUCUACGAAUUCGUACCAUAGAGAGGCUUAUCCGCUCGACCGAGAUCGGAAGAGCACACGU
B11: target 1 C2U,C4A (mixed)
RNA 1: CACCCGUGCAAAAAUGCAGGGGUCUAAAACUGAGCGGAUAACCUCUCUAUGG
RNA 2: GGGAAUGGAUCCACAUCUACGAAUUCGUACCAUAGAGAGGUUAUCCGAUUACCGAGAUCGGAAGAGCACACGU
B12: target 1 A1U,A9U (mixed)
RNA 1: CACCCGUGCAAAAAUGCAGGGGUCUAAAACUGAGCGGAUAACCUCUCUAUGG
RNA 2: GGGAAUGGAUCCACAUCUACGAAUUCGUACCAUAGAGAGGUUUUCCGCUCUCCGAGAUCGGAAGAGCACACGU
B13: target 1 A18G (mixed)
RNA 1: CACCCGUGCAAAAAUGCAGGGGUCUAAAACUGAGCGGAUAACCUCUCUAUGG
RNA 2: GGGAAUGGAUCCACAUCUACGAAUUCGUACCAUGGAGAGGUUAUCCGCUCACCGAGAUCGGAAGAGCACACGU

In the data set the target is T1, EsCas13d, nuclease-dead (Eubacterium siraeum, UniProt B0MS50, R295A;H300A;R849A;H854A).
T1 sequence: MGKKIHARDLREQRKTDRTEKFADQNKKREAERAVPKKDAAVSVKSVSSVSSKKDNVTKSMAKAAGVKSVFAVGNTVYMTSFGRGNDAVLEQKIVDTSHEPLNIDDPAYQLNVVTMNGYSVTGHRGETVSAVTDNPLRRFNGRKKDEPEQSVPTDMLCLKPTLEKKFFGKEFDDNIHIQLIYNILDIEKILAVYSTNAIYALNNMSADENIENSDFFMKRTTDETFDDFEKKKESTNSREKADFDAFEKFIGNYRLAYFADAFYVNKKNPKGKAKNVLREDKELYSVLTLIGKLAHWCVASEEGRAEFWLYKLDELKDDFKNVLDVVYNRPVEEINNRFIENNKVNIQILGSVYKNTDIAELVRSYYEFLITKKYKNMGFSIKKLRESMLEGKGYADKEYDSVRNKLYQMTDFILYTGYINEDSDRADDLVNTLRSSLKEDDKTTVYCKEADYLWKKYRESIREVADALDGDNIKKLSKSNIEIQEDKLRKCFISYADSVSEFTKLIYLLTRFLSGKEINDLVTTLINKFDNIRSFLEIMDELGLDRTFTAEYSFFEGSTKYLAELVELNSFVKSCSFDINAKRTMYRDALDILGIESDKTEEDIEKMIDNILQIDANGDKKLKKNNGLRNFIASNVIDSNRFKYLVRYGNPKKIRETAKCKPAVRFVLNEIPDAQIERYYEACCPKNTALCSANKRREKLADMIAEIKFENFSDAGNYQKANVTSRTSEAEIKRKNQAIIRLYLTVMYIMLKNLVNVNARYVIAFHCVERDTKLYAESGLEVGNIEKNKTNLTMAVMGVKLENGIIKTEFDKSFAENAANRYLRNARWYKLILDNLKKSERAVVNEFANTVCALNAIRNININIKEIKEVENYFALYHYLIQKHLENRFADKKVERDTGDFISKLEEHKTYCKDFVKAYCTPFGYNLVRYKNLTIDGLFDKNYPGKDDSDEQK
The data set can be described thus: crRNA (strand 1, pre-loaded); Mg2+; 40 mM Tris-HCl pH 7.5, 150 mM NaCl, 6 mM MgCl2, 1 mM DTT, 0.1% Tween-20, 0.2 mg/ml BSA; 25 C; 10 min per concentration, then washed. The settings on record: tags: His6-TwinStrep-SUMO cleaved; N-terminal SNAP kept (SNAP-Surface 488); label: 3' end held by stalled T7 RNA polymerase.
Turning to B1, the Kd stood at 35 ± 5 nM.

For the molecule B2, binding was characterised by a dissociation constant (Kd) of 41 ± 4 nM.

Regarding B3, binding was put at a Kd of 7.7 ± 0.4 nM.

B4 gave a Kd of 41 ± 10 nM.

Consider B5, for which the affinity, expressed as Kd, was 19.9 ± 1.5 nM.

On to B6, for which the Kd was determined as 63 ± 12 nM.

Molecule B7 had a Kd of 7.9 ± 0.4 nM.

In turn, B8 gave a Kd of 15 ± 1.2 nM.

Regarding B9, the affinity, expressed as Kd, was 17.2 ± 0.8 nM.

For the molecule B10, binding was put at a Kd of 9.8 ± 1.2 nM.

Molecule B11 returned a Kd of 6.7 ± 0.4 nM.

B12 displayed a Kd of 7.8 ± 0.5 nM.

Turning to B13, binding was put at a Kd of 94 ± 28 nM.

In general, Kd refers to the free concentration of one partner at which half of the binding sites on the other are occupied at equilibrium, for simple one-to-one binding. Lower therefore signals tighter binding.
